Assays:
[1] = In vitro aging: isomerization of Asp1 and Asp7; assay type: physicochemical; details: from the rates in Figure 4
SH-SY5Y = details: incubated with SH-SY5Y cells; cited from earlier work
NSC-hTERT = details: incubated with NSC-hTERT cells; cited from earlier work
SK-N-SH = details: incubated with SK-N-SH cells; cited from earlier work

Substance	degree of isomerization within a 30 h time frame [1] [%]	toxicity relative to canonical form (SH-SY5Y)	toxicity relative to canonical form (NSC-hTERT)	toxicity relative to canonical form (SK-N-SH)
Aβ: amyloid beta in general; isomerization estimated from the measured rates	~0.2	–	–	–
isomerized Aβ1–42: isomerized Aβ1–42 studied by Makarov and co-workers	–	more toxic than the canonical form	more toxic than the canonical form	more toxic than the canonical form
